According to US6500669, “Programmable genotoxic agents and uses therefor” (Massachusetts Institute of Technology):

Target: streptavidin (UniProt P22629 P22629:25-183)
Assay: EMSA; half-maximum binding (C1/2) via biotin on the adduct; reversed by free d-biotin; 100 mM NaCl, MgCl2, pH 7.4, room temperature
Details: tags: Pierce; chain copies: 4; label: 5' 32P
Protocol: Gel Mobility Shift Assay. […] A constant amount of the lesioned U-17 (3200 cpm, ~0.1 nM) was used in each incubation, with the concentration of streptavidin varied from 0 to 50 nM. Free d-biotin (0.4 mM) was added into the incubation(s) where indicated. After electrophoresis, the gel was dried and exposed to x-ray film with an intensifying screen. The dried gel was also exposed to a PhorphorImager screen and the data were analyzed with IMAGEQUANT software (Molecular Dynamics, Sunnyvale, Calif.).

streptavidin, sequence (P22629 25-183, one chain of several): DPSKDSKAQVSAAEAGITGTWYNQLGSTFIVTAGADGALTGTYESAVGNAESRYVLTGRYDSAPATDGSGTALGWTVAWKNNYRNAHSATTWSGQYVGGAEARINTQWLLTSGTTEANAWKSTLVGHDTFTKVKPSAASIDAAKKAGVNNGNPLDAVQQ

B1: TMP-biotin monoadducted U-17 (dsDNA)
DNA 1: CGGCCGTACGUGCGCCG
DNA 2: CGGCGCACGTACGGCCG
modifications: TMP-biotin (psoralen-biotin) monoadduct at T7 of the central TA; deoxyuridine at position 11
Kd: ~1.5 nM
